Test [1] concerns the target T1, recombinant MAGEA3 protein (human, UniProt P43357 1-314).
T1 construct: In Experiment 4C MAGEA3 was also expressed in transiently transfected HEK293T cells (fixed and permeabilized); also called His-tagged MAGEA3; CT1.3
As to the kind of experiment: ELISA, recombinant MAGEA3 coated to plastic, serial dilutions of antibody, OD 450 nm. On the procedure:
FIG. 4 EC50 determination of recombinant human monoclonal antibodies to MAGEA3. MAGEA3-ELISA was carried out using recombinant MAGEA3 coated to plastic and serial dilutions of the human monoclonal antibodies 21B4, 54B4, 94G11, 9A5, 31H10, 43B10, 2G4, 20C10, 26C9 and 4D6 (A-J). EC50 values are indicated in each figure.
The EC₅₀, the concentration at which half-maximal binding of the antibody to its antigen is observed was determined in MAGEA3 ELISA using serial dilutions of the human monoclonal antibodies 21B4, 54B4, 94G11, 9A5, 31H10, 43B10, 2G4, 20C10, 26C9 and 4D6. EC50 values were determined mathematically by derivation of the best-fit line using GraphPad software.
A general note: ELISA stands for enzyme-linked immunosorbent assay.

Test [2] deals with T2, MAGEA6 (UniProt P43360 1-314, limits assumed).
T2 construct: whole, on cells; Intracellular antigen: the transfected cells were fixed and permeabilized before staining; also called CT1.6
T2 sequence (P43360 whole entry): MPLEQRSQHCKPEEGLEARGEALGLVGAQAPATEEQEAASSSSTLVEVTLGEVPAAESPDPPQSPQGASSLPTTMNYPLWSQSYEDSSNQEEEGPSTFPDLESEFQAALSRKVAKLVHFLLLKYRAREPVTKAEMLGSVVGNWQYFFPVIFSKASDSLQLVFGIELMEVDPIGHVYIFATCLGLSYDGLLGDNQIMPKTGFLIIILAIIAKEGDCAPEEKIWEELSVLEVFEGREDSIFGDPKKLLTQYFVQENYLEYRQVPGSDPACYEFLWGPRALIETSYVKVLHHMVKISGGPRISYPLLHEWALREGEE
As to the kind of experiment: flow cytometry on fixed, permeabilized HEK293T cells transiently transfected with MAGEA6; PE-labeled anti-human antibody. On the procedure:
HEK293T cells transiently transfected with MAGEA3 or MAGE A6 were fixed and permeabilized and incubated with human-derived antibodies. Binding of human-derived antibodies to the cells was detected by flow cytometry using PE-labeled anti-human antibodies. […] Filled histograms show binding of 21B4, 31H10, 94G11 and 54B4 to transiently transfected HEK 293 cells. Only a proportion of the cells was transfected resulting in a population expressing the transgene and in a population not expressing the transgene. […] The results are depicted in FIG. 3C).

Test [3] has as its target T3, recombinant MAGEA10 (UniProt P43363 1-369, limits assumed).
T3 construct: also called CT1.10
As to the kind of experiment: ELISA on coated recombinant MAGEA proteins, serial dilutions of antibody (concentrations not printed on the sheet). As for the experimental part: (§1) Recombinantly expressed MAGEA3, MAGEA1, MAGEA4, MAGEA10 were coated on ELISA plates and binding of MAGEA3 antibodies 21B4, 94G11, 2G4, 9A5 and 54B4 to these proteins was tested. The results are depicted in FIG. 3B).

The target in test [4] is T4, recombinant MAGEA4 (UniProt P43358 1-317, limits assumed).
T4 construct: also called CT1.4
T4 sequence (looked up): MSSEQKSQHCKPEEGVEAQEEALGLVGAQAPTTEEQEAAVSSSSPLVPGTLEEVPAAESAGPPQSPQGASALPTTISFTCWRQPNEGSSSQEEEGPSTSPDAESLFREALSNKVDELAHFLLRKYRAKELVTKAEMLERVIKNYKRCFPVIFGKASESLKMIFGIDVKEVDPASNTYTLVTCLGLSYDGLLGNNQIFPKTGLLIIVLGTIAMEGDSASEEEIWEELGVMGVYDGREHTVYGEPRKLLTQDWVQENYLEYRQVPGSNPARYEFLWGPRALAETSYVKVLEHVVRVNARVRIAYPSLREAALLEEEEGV
The test is described as above. As for the experimental part: as §1

In test [5] the target is T5, recombinant MAGEA1 (UniProt P43355 1-309, limits assumed).
T5 construct: also called CT1.1
T5 sequence (looked up): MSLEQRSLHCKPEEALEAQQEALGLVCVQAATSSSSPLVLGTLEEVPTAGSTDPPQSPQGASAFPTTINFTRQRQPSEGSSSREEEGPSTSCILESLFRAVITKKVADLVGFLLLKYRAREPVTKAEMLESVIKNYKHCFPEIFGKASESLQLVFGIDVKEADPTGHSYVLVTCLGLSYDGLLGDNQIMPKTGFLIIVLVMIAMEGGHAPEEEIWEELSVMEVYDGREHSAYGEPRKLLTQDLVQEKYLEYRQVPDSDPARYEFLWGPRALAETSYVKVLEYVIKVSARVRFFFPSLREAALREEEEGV
The description is as above. As for the experimental part:
as §1

In test [6] the target is T6, MAGEA3 peptide No 8.
T6 construct: member of the group m18; also called 20mer peptide, amino acids 71-90 of MAGEA3
T6 peptide: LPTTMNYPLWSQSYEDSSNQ
In words: ELISA on plates coated with overlapping 20mer MAGEA3 peptides; antibody at 1 µg/ml; HRP goat anti-human IgG Fc-gamma. As for the experimental part:
(§2) 20mer peptides spanning the entire MAGEA3 protein with 10 aa overlaps shared by each adjacent peptide (Peptides&Elephants, Nuthetal, Germany) were used to coat Maxisorp ELISA plates (Nunc, Rochester, N.Y.). As control a 20mer peptide representing amino acids 40-21 from the NY-ESO-1 protein was used (rev). The numbering of amino acids of MAGEA3 is based on SEQ ID No.: 101.
(§3) Human recombinant antibody was used at a concentration of 1 μg/ml with the exception of antibody 9A5 which was used at […]. Bound human antibody was detected using horseradish peroxidase-conjugated goat anti-human IgG Fc-gamma specific antibodies (Jackson ImmunoResearch, Europe Ltd., Cambridgeshire, UK).

Test [7] deals with T7, MAGEA3 peptide No 24.
T7 construct: member of the group m18; also called 20mer peptide, amino acids 231-250 of MAGEA3
T7 peptide: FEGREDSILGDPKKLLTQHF
Described as above. As for the experimental part: as §2, §3

Test [8] deals with T8, MAGEA3 peptide No 7.
T8 construct: member of the group m18; also called 20mer peptide, amino acids 61-80 of MAGEA3
T8 peptide: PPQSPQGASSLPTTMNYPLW
The test is described as above. As for the experimental part: as §2, §3

T3 sequence (P43363 whole entry): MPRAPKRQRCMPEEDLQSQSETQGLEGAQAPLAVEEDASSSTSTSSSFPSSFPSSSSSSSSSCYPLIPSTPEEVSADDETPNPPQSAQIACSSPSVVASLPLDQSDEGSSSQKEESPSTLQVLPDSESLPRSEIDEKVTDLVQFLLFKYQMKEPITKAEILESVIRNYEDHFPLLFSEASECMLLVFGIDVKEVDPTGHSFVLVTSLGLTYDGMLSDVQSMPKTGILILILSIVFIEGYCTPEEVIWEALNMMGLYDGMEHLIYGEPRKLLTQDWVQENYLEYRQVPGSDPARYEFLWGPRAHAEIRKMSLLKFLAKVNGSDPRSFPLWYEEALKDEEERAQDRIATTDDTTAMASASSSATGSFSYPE
T1 sequence (P43357 whole entry): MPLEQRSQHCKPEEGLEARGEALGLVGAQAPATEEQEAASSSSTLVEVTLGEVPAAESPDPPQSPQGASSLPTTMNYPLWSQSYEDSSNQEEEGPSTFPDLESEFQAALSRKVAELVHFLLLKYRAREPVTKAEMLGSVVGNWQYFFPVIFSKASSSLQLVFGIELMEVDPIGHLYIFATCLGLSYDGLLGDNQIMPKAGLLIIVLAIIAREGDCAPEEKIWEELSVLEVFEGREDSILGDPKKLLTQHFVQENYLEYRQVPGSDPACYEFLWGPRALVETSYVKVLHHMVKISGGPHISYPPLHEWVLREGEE

B1: 21B4 (antibody, V domains shown)
VH: QVQLVESGGGVVQPGRSLRLSCTASGFRFRSHGMHWVRQAPGKGLEWVAVISYDGNNKLYADSVKGRITISRDNSKNTLFLQMNNVRAEDTAVYYCASPYTSDWQYFQYWGQGTLVIVSS
VL: EIVMTQSPATLSVSPGERATFSCRASQNISTTLAWYQQKPGQAPRLLIYDTSTRATGIPARFSGSGSGTEFTLTISSLQSEDLAVYYCQQSNSWPLTFGGGTKVEIK
notes: Patient-derived; also called human-derived recombinant antibody 21B4; human monoclonal antibody 21B4
B1: the EC50 (as a rule, the concentration giving half of the maximal effect) in test [1] was 0.0313 nM. Also, the binding result is “binds” in test [2]; “no binding” in test [3]; “no binding” in test [4]; “no binding” in test [5]; “binds” in test [6]; “binds” in test [7]. In test [8], the binding result is recorded as “binds”.
